Assay results from patent US6656718B2, “Modified carboxypeptidase enzymes and their use” (Cancer Research Technology Limited, priority 2000, dated 2003).

Columns and labels:
[1] = tested on: CM79; test: CM79 binding to CPG2 variants by ELISA; set-up: species or system mice; details: clarified culture supernatants
Source text: CM79 binding and CPG2 enzyme activity of all CPG2 variants were initially tested in clarified culture supernatants for CM79 binding.

[2] = CPG2 enzyme activity of variants; assay type: biochemical; details: clarified culture supernatants
Source text: Thus for example, CPG2 activity may be tested by the ability of the enzyme to hydrolyse methotrexate (MTX). CPG2 hydrolysis of MTX results in a change in absorbance at 320 nm which may be measured by spectrophotometry. CPG2 catalytic activity in solid tissues can be assayed using an indirect HPLC method, measuring, for example, 2,4-diamino-N^10 methypteroic acid (DAMPA, a metabolite of MTX).
CM79 binding and CPG2 enzyme activity of all CPG2 variants were initially tested in clarified culture supernatants for CM79 binding. […] The variant V8 MFE-23::CPG2 indicated the role of the c-terminus in CM79 binding of CPG2 (FIG. 4, Table 1). CM79 bound to all the remaining CPG2 variants (Table 1).
Radiolabelled proteins were FPLC purified using a Superose 12 column (Pharmacia; PBS mobile phase 0.5 ml/min). Gamma radiation emitting fractions at 135 kDa elution point were tested for CPG2 enzyme activity. Protein concentrations were determined using Lowry reagent according to the manufacturer's protocol (BioRad).

B1: wild-type CPG2: MFE-23::CPG2 fusion protein with wild-type CPG2: Region 1 KEYGVRD (SEQ ID NO:2), Region 2 GAGK (SEQ ID NO:4) (protein)
chain: ALAQKRDNVLFQAATDEQPAVIKTLEKLVNIETGTGDAEGIAAAGNFLEAELKNLGFTVTRSKSAGLVVGDNIVGKIKGRGGKNLLLMSHMDTVYLKGILAKAPFRVEGDKAYGPGIADDKGGNAVILHTLKLLKEYGVRDYGTITVLFNTDEEKGSFGSRDLIQEEAKLADYVLSFEPTSAGDEKLSLGTSGIAYVQVNITGKASHAGAAPELGVNALVEASDLVLRTMNIDDKAKNLRFNWTIAKAGNVSNIIPASATLNADVRYARNEDFDAAMKTLEERAQQKKLPEADVKVIVTRGRPAFNAGEGGKKLVDKAVAYYKEAGGTLGVEERTGGGTDAAYAALSGKPVIESLGLPGFGYHSDKAEYVDISAIPRRLYMAARLIMDLGAGK
For B1, the CM79 binding [1] was “Yes” and the “Enzyme Activity” value [2] was “Yes”.
